Test results as given in US20220098323A1 (US Dept. of Health and Human Services, published 2022).
Changes are numbered by the printed parent chain.

Legend:
human glypican-1 (GPC1) [1] = target: T1, human glypican-1 (GPC1) (human, UniProt P35052 24-530); assay: ELISA on GPC1, OD450 against concentration
T1 construct: also called human GPC1; HuGPC1
T1 sequence (looked up): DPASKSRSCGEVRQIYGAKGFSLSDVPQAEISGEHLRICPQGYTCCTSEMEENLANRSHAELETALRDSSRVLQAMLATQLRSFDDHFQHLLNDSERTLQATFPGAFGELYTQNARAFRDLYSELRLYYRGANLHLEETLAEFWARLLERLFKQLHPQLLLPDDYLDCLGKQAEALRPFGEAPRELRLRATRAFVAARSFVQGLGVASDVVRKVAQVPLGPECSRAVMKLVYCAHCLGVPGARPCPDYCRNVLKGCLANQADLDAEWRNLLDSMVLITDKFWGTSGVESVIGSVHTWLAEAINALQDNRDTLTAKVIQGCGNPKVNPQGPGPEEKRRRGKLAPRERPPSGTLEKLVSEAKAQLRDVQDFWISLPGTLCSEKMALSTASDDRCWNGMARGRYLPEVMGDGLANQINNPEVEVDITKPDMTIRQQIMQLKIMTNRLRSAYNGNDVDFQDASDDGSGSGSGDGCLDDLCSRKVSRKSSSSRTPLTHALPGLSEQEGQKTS

[2] = target: T2, cell-surface GPC1 on GPC1-expressing tumor cells (2B9 KLM, H8, T3M4) (UniProt P35052 24-530, limits assumed)
T2 sequence (looked up): T1 sequence (looked up)

human glypican-1 (GPC1) [3] = target: T1, human glypican-1 (GPC1); assay: Octet analysis
human glypican-1 (GPC1) [4] = target: T1, human glypican-1 (GPC1); assay: Octet kinetic analysis
human glypican-1 (GPC1) [5] = target: T1, human glypican-1 (GPC1); assay: Octet kinetic analysis (column Kdis)
human glypican-1 (GPC1) [6] = target: T1, human glypican-1 (GPC1); assay: Octet kinetic analysis; remark: listed apart in the source
human GPC2 [7] = target: T3, human GPC2 (human, UniProt Q8N158 24-554, limits assumed); assay: ELISA
T3 sequence (looked up): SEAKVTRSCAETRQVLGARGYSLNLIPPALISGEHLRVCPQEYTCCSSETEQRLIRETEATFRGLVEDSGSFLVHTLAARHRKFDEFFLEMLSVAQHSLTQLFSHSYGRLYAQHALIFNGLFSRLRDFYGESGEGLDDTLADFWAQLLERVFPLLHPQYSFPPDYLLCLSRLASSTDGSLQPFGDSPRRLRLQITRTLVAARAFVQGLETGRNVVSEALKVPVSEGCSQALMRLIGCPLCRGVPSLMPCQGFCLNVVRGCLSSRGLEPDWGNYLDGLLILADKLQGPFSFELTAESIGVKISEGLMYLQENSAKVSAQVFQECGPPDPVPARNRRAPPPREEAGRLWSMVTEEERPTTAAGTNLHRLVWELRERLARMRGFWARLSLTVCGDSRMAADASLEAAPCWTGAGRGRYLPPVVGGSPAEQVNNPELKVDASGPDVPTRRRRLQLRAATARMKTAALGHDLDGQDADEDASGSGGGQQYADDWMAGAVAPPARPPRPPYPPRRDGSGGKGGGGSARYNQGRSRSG

[8] = target: T4, human GPC5 (printed as 'GPCS') (human, UniProt P78333 25-554, limits assumed); assay: ELISA
T4 construct: The text prints 'GPCS'
T4 sequence (looked up): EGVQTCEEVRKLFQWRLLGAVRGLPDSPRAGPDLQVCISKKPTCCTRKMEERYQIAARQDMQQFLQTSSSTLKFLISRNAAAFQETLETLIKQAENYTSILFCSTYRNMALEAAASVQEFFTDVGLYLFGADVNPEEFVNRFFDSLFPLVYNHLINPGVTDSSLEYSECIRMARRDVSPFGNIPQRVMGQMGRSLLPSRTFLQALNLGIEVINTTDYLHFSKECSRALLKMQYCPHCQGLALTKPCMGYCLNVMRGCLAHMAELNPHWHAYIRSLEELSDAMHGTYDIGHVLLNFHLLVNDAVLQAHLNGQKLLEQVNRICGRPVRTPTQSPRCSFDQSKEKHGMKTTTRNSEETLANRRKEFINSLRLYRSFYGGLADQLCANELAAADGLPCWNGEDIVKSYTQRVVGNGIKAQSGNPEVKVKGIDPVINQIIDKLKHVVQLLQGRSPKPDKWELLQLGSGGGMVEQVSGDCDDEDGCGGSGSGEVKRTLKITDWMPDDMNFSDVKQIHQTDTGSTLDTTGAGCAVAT

human GPC3 [9] = target: T5, human GPC3 (human, UniProt P51654 25-559, limits assumed); assay: ELISA
T5 sequence (P51654 25-559 limits assumed): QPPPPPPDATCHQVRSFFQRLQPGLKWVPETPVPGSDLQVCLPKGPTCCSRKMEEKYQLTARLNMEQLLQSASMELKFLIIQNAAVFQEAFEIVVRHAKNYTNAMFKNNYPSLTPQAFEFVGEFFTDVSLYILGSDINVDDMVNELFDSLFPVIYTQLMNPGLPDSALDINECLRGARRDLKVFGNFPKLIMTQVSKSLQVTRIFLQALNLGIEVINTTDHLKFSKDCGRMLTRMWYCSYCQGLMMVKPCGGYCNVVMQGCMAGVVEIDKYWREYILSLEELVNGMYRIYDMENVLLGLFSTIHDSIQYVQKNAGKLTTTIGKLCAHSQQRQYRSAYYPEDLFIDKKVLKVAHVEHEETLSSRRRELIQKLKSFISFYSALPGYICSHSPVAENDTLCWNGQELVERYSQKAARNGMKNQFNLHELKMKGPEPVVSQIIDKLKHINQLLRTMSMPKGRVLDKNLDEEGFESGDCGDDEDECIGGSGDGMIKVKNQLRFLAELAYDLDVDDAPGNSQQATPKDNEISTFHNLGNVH

human GPC6 [10] = target: T6, human GPC6 (human, UniProt Q9Y625 24-529, limits assumed); assay: ELISA
T6 sequence (looked up): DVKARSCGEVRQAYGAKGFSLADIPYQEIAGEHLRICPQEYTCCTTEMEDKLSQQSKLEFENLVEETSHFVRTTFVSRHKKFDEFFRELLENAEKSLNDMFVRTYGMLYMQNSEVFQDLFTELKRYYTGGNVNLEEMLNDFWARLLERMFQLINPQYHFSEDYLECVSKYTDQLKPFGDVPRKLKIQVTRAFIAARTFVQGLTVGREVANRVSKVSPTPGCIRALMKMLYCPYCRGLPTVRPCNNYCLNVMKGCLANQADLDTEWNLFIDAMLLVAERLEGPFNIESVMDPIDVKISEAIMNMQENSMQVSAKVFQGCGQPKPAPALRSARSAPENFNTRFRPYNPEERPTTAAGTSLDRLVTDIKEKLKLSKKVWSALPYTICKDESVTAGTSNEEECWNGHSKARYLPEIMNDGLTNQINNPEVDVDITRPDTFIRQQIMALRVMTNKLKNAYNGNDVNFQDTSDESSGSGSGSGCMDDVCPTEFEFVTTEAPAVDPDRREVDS

human glypican-1 (GPC1) [11] = target: T1, human glypican-1 (GPC1); assay: Octet kinetic analysis; remark: listed apart in the source
human GPC2 [12] = target: T3, human GPC2; assay: monoclonal phage ELISA
[13] = target: T4, human GPC5 (printed as 'GPCS'); assay: monoclonal phage ELISA
mouse GPC1 = target: T7, mouse GPC1 (mouse, UniProt Q9QZF2 24-529, limits assumed); assay: monoclonal phage ELISA
T7 construct: also called MsGPC1
T7 sequence (looked up): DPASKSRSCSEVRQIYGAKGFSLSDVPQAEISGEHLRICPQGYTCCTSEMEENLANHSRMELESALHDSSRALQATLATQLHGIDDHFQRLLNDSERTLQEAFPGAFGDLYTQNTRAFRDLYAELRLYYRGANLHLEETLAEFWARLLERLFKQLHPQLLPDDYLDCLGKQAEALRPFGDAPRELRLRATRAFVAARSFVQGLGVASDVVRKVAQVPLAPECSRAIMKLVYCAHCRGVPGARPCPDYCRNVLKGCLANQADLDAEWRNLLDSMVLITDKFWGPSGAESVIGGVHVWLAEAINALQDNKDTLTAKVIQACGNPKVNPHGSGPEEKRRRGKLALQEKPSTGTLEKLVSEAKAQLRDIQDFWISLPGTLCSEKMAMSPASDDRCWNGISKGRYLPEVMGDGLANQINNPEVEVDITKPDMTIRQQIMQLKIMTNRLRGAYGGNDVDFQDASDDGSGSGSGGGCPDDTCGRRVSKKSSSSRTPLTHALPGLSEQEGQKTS

human GPC3 [14] = target: T5, human GPC3; assay: monoclonal phage ELISA
human GPC6 [15] = target: T6, human GPC6; assay: monoclonal phage ELISA

B1: D4-LR immunotoxin (other)
chain: MQVQLVESGGGLVQPGGSLRLSCVASGYSYSIGYMAWFRQAPGKERAWVASRYTGDGGAVFDDAVKGRFTTSQESAGNTFDLQMDSLKPEDTAMYYCAAKGPGFGRWEYWGRGTQVTVSSKLKASGGRHRQPRGWEQLGGGGGSPTGAEFLGDGGDVSFSTRGTQNWTVERLLQAHRQLEERGYVFVGYHGTFLEAAQSIVFGGVRARSQDLDAIWRGFYIAGDPALAYGYAQDQEPDARGRIRNGALLRVYVPRSSLPGFYRTSLTLAAPEAAGEVERLIGHPLPLRLDAITGPEEEGGRLETILGWPLAERTVVIPSAIPTDPRNVGGDLDPSSIPDKEQAISALPDYASQPGKPPREDLK
Work on B1 yielded an EC50 (human glypican-1 (GPC1) [1]) of 4.3 nM, an EC50 [2] of 8.1 nM and a Kd (human glypican-1 (GPC1) [3]) of 6.3 nM. It also gave a Kd (human glypican-1 (GPC1) [4]) of 6.25 nM, a kon (human glypican-1 (GPC1) [4]) of 350000 M⁻¹ s⁻¹ and a koff (human glypican-1 (GPC1) [5]) of 0.00218 s⁻¹.

B2: mouse monoclonal antibody HM2 (antibody, V domains shown)
VH: EVQLQQSGAELVRPGASVKLSCTASGFNIKDDYMHWVKQRPEQGLEWIGWIDPENGDTEYASKFQGKATITADTSSNTAYLQLSSLTSEDTAVYYCTRSSVGYWGQGTTLTVSS
VL: DVVMTQTPLSLPVSLGDQASISCRSSQSLVHSNGNTYLHWYLQKPGQSPKLLIYKVSNRFSGVPDRFSGSGSGTYFTLKISRVEAEDLGVYFCSQRTHVPYTFGGGTKLEIK
notes: Mouse hybridoma antibody; also called HM2 antibody; HM2 anti-GPC1 monoclonal antibody
In the case of B2, the Kd (human glypican-1 (GPC1) [6]) is reported as 1.2 nM, the binding result (human GPC2 [7]) is reported as “no binding” and the binding result [8] is reported as “no binding”. B2: no binding (human GPC3 [9]); no binding (human GPC6 [10]).

B3: D4-AAA-D4-LR immunotoxin (other)
chain: MQVQLVESGGGLVQPGGSLRLSCVASGYSYSIGYMAWFRQAPGKERAWVASRYTGDGGAVFDDAVKGRFTTSQESAGNTFDLQMDSLKPEDTAMYYCAAKGPGFGRWEYWGRGTQVTVSSAAAQVQLVESGGGLVQPGGSLRLSCVASGYSYSIGYMAWFRQAPGKERAWVASRYTGDGGAVFDDAVKGRFTTSQESAGNTFDLQMDSLKPEDTAMYYCAAKGPGFGRWEYWGRGTQVTVSSKLKASGGRHRQPRGWEQLGGGGGSPTGAEFLGDGGDVSFSTRGTQNWTVERLLQAHRQLEERGYVFVGYHGTFLEAAQSIVFGGVRARSQDLDAIWRGFYIAGDPALAYGYAQDQEPDARGRIRNGALLRVYVPRSSLPGFYRTSLTLAAPEAAGEVERLIGHPLPLRLDAITGPEEEGGRLETILGWPLAERTVVIPSAIPTDPRNVGGDLDPSSIPDKEQAISALPDYASQPGKPPREDLK
notes: also called bivalent D4 immunotoxin; D4-D4-LR
B3 was tested, and the EC50 (human glypican-1 (GPC1) [1]) was 0.2 nM, the EC50 [2] was 1.9 nM and the Kd (human glypican-1 (GPC1) [11]) was 0.09 nM.

B4: D4-GGS-D4-LR immunotoxin (other)
chain: B3 chain with A121G, A122G, A123S
notes: as for B3
Work on B4 yielded an EC50 (human glypican-1 (GPC1) [1]) of 0.1 nM, an EC50 [2] of 3.8 nM and a Kd (human glypican-1 (GPC1) [11]) of 0.08 nM.

B5: HM2-LR immunotoxin (other)
chain: MEVQLQQSGAELVRPGASVKLSCTASGFNIKDDYMHWVKQRPEQGLEWIGWIDPENGDTEYASKFQGKATITADTSSNTAYLQLSSLTSEDTAVYYCTRSSVGYWGQGTTLTVSSGGGGSGGGGSGGGGSDVVMTQTPLSLPVSLGDQASISCRSSQSLVHSNGNTYLHWYLQKPGQSPKLLIYKVSNRFSGVPDRFSGSGSGTYFTLKISRVEAEDLGVYFCSQRTHVPYTFGGGTKLEIKKLKASGGRHRQPRGWEQLGGGGGSPTGAEFLGDGGDVSFSTRGTQNWTVERLLQAHRQLEERGYVFVGYHGTFLEAAQSIVFGGVRARSQDLDAIWRGFYIAGDPALAYGYAQDQEPDARGRIRNGALLRVYVPRSSLPGFYRTSLTLAAPEAAGEVERLIGHPLPLRLDAITGPEEEGGRLETILGWPLAERTVVIPSAIPTDPRNVGGDLDPSSIPDKEQAISALPDYASQPGKPPREDLK
B5 was tested, and the Kd (human glypican-1 (GPC1) [3]) was 6.9 nM, the Kd (human glypican-1 (GPC1) [4]) was 6.94 nM and the kon (human glypican-1 (GPC1) [4]) was 297000 M⁻¹ s⁻¹. The koff (human glypican-1 (GPC1) [5]) was 0.00206 s⁻¹.

B6: camel single-domain antibody D4 (VHH)
VHH: QVQLVESGGGLVQPGGSLRLSCVASGYSYSIGYMAWFRQAPGKERAWVASRYTGDGGAVFDDAVKGRFTTSQESAGNTFDLQMDSLKPEDTAMYYCAAKGPGFGRWEYWGRGTQVTVSS
notes: also called D4 antibody; VHH antibody D4
B6: no binding (human GPC2 [12]); no binding [13]; binds (mouse GPC1). For the same binder, the binding result (human GPC3 [14]) was “no binding”, the binding result (human GPC6 [15]) was “no binding” and the Kd (human glypican-1 (GPC1) [6]) was 1.3 nM.
